Source: patent US20120253009A1
Bridge positions count the residues as written; N and C are the ends. Ends that are not written are not given here.

B1: Fc-Loop-(SEQ ID NO: 9) (Fc fusion, part only; not given: Fc-Loop scaffold and insertion site, part only)
chain, part: CSSGGPTLREWQQCQRAQ
modifications: disulfide 1-14 (inferred); also: inserted into an Fc-Loop, Fc, site and spacers not given here
B2: Fc-Loop-(SEQ ID NO: 10) (Fc fusion, part only; not given: Fc-Loop scaffold and insertion site, part only)
chain, part: CSSGGPTLREWQQCGRAQ
modifications: disulfide 1-14 (inferred); also: inserted into an Fc-Loop, Fc, site and spacers not given here
B3: Fc-Loop-(SEQ ID NO: 8) (Fc fusion, part only; not given: Fc-Loop scaffold and insertion site, part only)
chain, part: CSSGGPTLREWQQCSRAQ
modifications: disulfide 1-14 (inferred); also: inserted into an Fc-Loop, Fc, site and spacers not given here

Biological target: human mpl receptor (human) (UniProt P40238)
Test: cell-based or functional assay

Row | Binder | Pb EC50 [ng/mL]
1 | B1 | 0.27
2 | B2 | 2.31
3 | B3 | 0.28
